± gives the half width of the 95% confidence interval.
Columns and labels:
[1] = folding stability dG unfold from trypsin proteolysis; higher = more stable
How it was run: (§1)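 How resistant each design was to proteolysis was captured as K50, inferred by Bayesian fitting of sequencing counts. Unfolding free energy was then derived relative to a sequence-predicted unfolded-state K50 and a shared folded-state K50, per protease or combined. Digestion used trypsin and chymotrypsin at 11 threefold-diluted concentrations plus a no-protease condition, on mini-proteins under 80 residues without cysteine in a PA-tagged cDNA display construct. Designs were kept only when AlphaFold2 dimer inter-PAE was above 15.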

[2] = folding stability dG unfold from chymotrypsin proteolysis; higher = more stable
How it was run: as §1

[3] = folding stability dG unfold (combined trypsin and chymotrypsin); higher = more stable
How it was run: as §1

Question: Which “folding stability dG unfold” value [1] does the source give for “SAGGSAGGSAGGSPAVRIPLEVLKELIPPDLVVEVNPVPVPEEGGVLVPVRVVSPEEAASAGGSAGGSAGGS [r4_119_TrMRF]” here?
Answer: The value was 0.0931 ± 0.052 kcal/mol.

Question: And the “folding stability dG unfold” value [2]?
Answer: The value was 1.13 ± 0.042 kcal/mol.

Question: And the “folding stability dG unfold” value [3]?
Answer: Its value is 0.728 ± 0.18 kcal/mol.

Question: For “SAGGKEFIEKLGNNATIEIDTPNGGKVKINLKIEKVKPGKYVIKGEVTVYNPNTNKPVKFPYTLTIESAGGS [r8_473_TrMRF]”, which “folding stability dG unfold” value [1] is on record?
Answer: Its value is 2.39 ± 0.2 kcal/mol.

Question: And the “folding stability dG unfold” value [2]?
Answer: Its value is 3.75 ± 0.076 kcal/mol.

Question: What about the “folding stability dG unfold” value [3] of the same sequence?
Answer: Its value is 3.13 ± 0.18 kcal/mol.

Question: Which “folding stability dG unfold” value [1] does the source give for “SAGGSAGGSAFDPGAPWIIMINIDIEVKKVEIERDPGDGKWEIKRIEITITIDIAIMPAEDMSAGGSAGGSA [r18_137_TrROS]” here?
Answer: Its value is 3.42 ± 0.39 kcal/mol.

Question: And the “folding stability dG unfold” value [2]?
Answer: Its value is 4.11 ± 0.23 kcal/mol.

Question: And the “folding stability dG unfold” value [3]?
Answer: Its value is 3.88 ± 0.38 kcal/mol.

Question: Which “folding stability dG unfold” value [1] does the source give for “SAGGSAKPNEKVKIRIINEDGEEIEIEVEVKPGEKIYLLENGEEVEVKPGEKIEFPPGAKILVEKVSAGGSA [r15_152_TrROS_Hall]” here?
Answer: Its value is 1.11 ± 0.034 kcal/mol.

Question: And the “folding stability dG unfold” value [2]?
Answer: Its value is 1.07 ± 0.02 kcal/mol.

Question: What about the “folding stability dG unfold” value [3] of the same sequence?
Answer: Its value is 1.1 ± 0.12 kcal/mol.

Question: Which “folding stability dG unfold” value [1] does the source give for “SAGGSAGGSAGWLKLKFEFTFMIIIWNDDGNNELVMIPIRIRITMTIPPIKYDPDGKLKLSAGGSAGGSAGG [r11_558_TrROS]” here?
Answer: The value was 2.87 ± 0.22 kcal/mol.

Question: And the “folding stability dG unfold” value [2]?
Answer: The value was 3.72 ± 0.067 kcal/mol.

Question: And the “folding stability dG unfold” value [3]?
Answer: Its value is 3.51 ± 0.22 kcal/mol.

Question: With “SAGGKTVIIEGMSLEELLELIKNAKPGDTITITLKVKVEEYKYENGKLVEKKEFEKTLTLTLKIEEKESAGG [r13_632_TrROS_Hall]” as the sequence, how does the “folding stability dG unfold” value [1] read?
Answer: The value was 2.57 ± 0.28 kcal/mol.

Question: What about the “folding stability dG unfold” value [2] of the same sequence?
Answer: Its value is 4.29 ± 0.19 kcal/mol.

Question: What about the “folding stability dG unfold” value [3] of the same sequence?
Answer: The value was 4.1 ± 0.33 kcal/mol.

Question: With “STAEELATYIAKTIQKRFPPGYRITDVRIERNPNGYVELPFTIEPPNGRPWTVEIWIDADNGEIEIEIQWSA [r9_219_TrROS]” as the sequence, how does the “folding stability dG unfold” value [1] read?
Answer: Its value is 2.47 ± 0.06 kcal/mol.

Question: And the “folding stability dG unfold” value [2]?
Answer: The value was 3.183 ± 0.017 kcal/mol.

Question: And the “folding stability dG unfold” value [3]?
Answer: Its value is 2.92 ± 0.068 kcal/mol.

Question: Which results are given for “SAGKIIKFKTKANENASITVPEENKILKIKVYKPNGTLLDEYEVEVKPNKTLVLNIPDDNLYVVVEPIPSAG [r5_797_TrMRF]”?
Answer: folding stability dG unfold [1]: 0.56 ± 0.025 kcal/mol; folding stability dG unfold [2]: 1.17 ± 0.1 kcal/mol; folding stability dG unfold [3]: 0.975 ± 0.057 kcal/mol

Question: Which “folding stability dG unfold” value [1] does the source give for “SAGGSAGGSAGGGMSIEEVKAKIEEEVGVEVSIEKVSGNTYKITLPKNNETYTIKIPKKSAGGSAGGSAGGS [r10_1032_JUSTAS]” here?
Answer: The value was 0.396 ± 0.062 kcal/mol.

Question: And the “folding stability dG unfold” value [2]?
Answer: Its value is -0.126 ± 0.3 kcal/mol.

Question: What about the “folding stability dG unfold” value [3] of the same sequence?
Answer: Its value is 0.373 ± 0.25 kcal/mol.

Question: For “SAGGSAGGSAGGPYIRVLRSDGKPIVVPVRADDPELFDRVVAELEAAGYPVVKAEVLRLSAGGSAGGSAGGS [r10_231_TrMRF]”, which “folding stability dG unfold” value [1] is on record?
Answer: Its value is -0.818 ± 0.78 kcal/mol.

Question: What about the “folding stability dG unfold” value [2] of the same sequence?
Answer: The value was 0.155 ± 0.12 kcal/mol.

Question: And the “folding stability dG unfold” value [3]?
Answer: Its value is -0.041 ± 0.093 kcal/mol.

Question: With “SAGGKTKVINVKVKSIEELLEKLAKLPNVKKVEVKEVNGKKEITIEVDGKKIKITKNKDGYYSIEIFPSAGG [r13_907_TrROS_Hall]” as the sequence, how does the “folding stability dG unfold” value [1] read?
Answer: The value was 2.16 ± 0.12 kcal/mol.

Question: What about the “folding stability dG unfold” value [2] of the same sequence?
Answer: Its value is 1.98 ± 0.34 kcal/mol.

Question: And the “folding stability dG unfold” value [3]?
Answer: Its value is 2.25 ± 0.37 kcal/mol.

Question: With “SAGGSAAVGTSKGANVVTVRVEELEDKVVVYRYDPATGTVRVIVIDKPTGKALETKTFPVLPDQDASAGGSA [r15_425_TrMRF]” as the sequence, how does the “folding stability dG unfold” value [1] read?
Answer: Its value is 1.01 ± 0.018 kcal/mol.

Question: And the “folding stability dG unfold” value [2]?
Answer: The value was 1.95 ± 0.047 kcal/mol.

Question: And the “folding stability dG unfold” value [3]?
Answer: Its value is 1.65 ± 0.049 kcal/mol.

Question: With “SAGGSAGGRRIYLPDFGAGGSGLVKAAEIAAAFEEEGYVASVSFSTSPFGPSVLVVDVASPSELSAGGSAGG [r6_597_TrMRF]” as the sequence, how does the “folding stability dG unfold” value [1] read?
Answer: The value was -0.606 ± 0.17 kcal/mol.

Question: And the “folding stability dG unfold” value [2]?
Answer: The value was -0.0496 ± 0.13 kcal/mol.

Question: What about the “folding stability dG unfold” value [3] of the same sequence?
Answer: Its value is -0.171 ± 0.14 kcal/mol.

Question: Which “folding stability dG unfold” value [1] does the source give for “SAGGSAGGSAGGMKTIVLPNVTPEEAEALAAELEKKYPGRTVNVTYVPENPTTVVITVGSAGGSAGGSAGGS [r10_852_JUSTAS]” here?
Answer: Its value is 2.21 ± 0.085 kcal/mol.

Question: What about the “folding stability dG unfold” value [2] of the same sequence?
Answer: The value was 2.54 ± 0.12 kcal/mol.

Question: What about the “folding stability dG unfold” value [3] of the same sequence?
Answer: The value was 2.41 ± 0.087 kcal/mol.

Question: For “IEEIKNFAKKHGFNVKIEPVKVDSEEEAKEEAEDHEKKNGYPTIIIKNPENGEIVWVIKIRPPPPPPGQPPS [r1_179_TrROS]”, which “folding stability dG unfold” value [1] is on record?
Answer: Its value is 2.51 ± 0.22 kcal/mol.

Question: What about the “folding stability dG unfold” value [2] of the same sequence?
Answer: The value was 3.89 ± 0.17 kcal/mol.

Question: And the “folding stability dG unfold” value [3]?
Answer: Its value is 3.18 ± 0.31 kcal/mol.

Question: With “SEWVSFMFPFKFEPDDGKIRIKIKMKAPDGEPLGEHEHPVRRDGDKVEVMQMITFPLPKGAQLDKIEIEPSA [r9_292_TrROS]” as the sequence, how does the “folding stability dG unfold” value [1] read?
Answer: The value was 0.778 ± 0.26 kcal/mol.

Question: And the “folding stability dG unfold” value [2]?
Answer: Its value is 1.11 ± 0.34 kcal/mol.

Question: What about the “folding stability dG unfold” value [3] of the same sequence?
Answer: Its value is 0.922 ± 0.24 kcal/mol.

Question: What does the source list for “SLPNRPLVPFELELRLPRFEVRVRLYRLPDGSYLLVAEIRFPNGLTARAEFVLDPVTGRIYLVRVEVRPESA [r9_795_TrMRF]”?
Answer: folding stability dG unfold [1]: 3.82 ± 0.041 kcal/mol; folding stability dG unfold [2]: 4.56 ± 0.05 kcal/mol; folding stability dG unfold [3]: 4.29 ± 0.05 kcal/mol

Question: For “SAGGSAGGSAGREIADEIKDILQEKGFEIKDIEVTRPPNGYPMVEITVRHDNGKKWTIWISAGGSAGGSAGG [r11_780_TrROS]”, which “folding stability dG unfold” value [1] is on record?
Answer: Its value is 1.5 ± 0.038 kcal/mol.

Question: And the “folding stability dG unfold” value [2]?
Answer: Its value is 1.91 ± 0.095 kcal/mol.

Question: What about the “folding stability dG unfold” value [3] of the same sequence?
Answer: The value was 1.76 ± 0.099 kcal/mol.

Question: For “SAGGSAGGSAWIPAKEIAKEIKAEYPPGKEREFRFPEEGWWIRIQVNKEGKPKVKVVPPEDISAGGSAGGSA [r18_61_TrROS]”, which “folding stability dG unfold” value [1] is on record?
Answer: Its value is 0.103 ± 0.19 kcal/mol.

Question: What about the “folding stability dG unfold” value [2] of the same sequence?
Answer: Its value is 0.18 ± 0.17 kcal/mol.

Question: And the “folding stability dG unfold” value [3]?
Answer: The value was 0.109 ± 0.16 kcal/mol.

Question: For “SPAKPVPIEITMHGDGMFEIRLPNGKEISFPNPDGQWAQATVDPDEGTIEIEMYNNGKRHTFEIPLPPNDSA [r9_226_TrROS]”, which “folding stability dG unfold” value [1] is on record?
Answer: Its value is 0.153 ± 0.14 kcal/mol.

Question: What about the “folding stability dG unfold” value [2] of the same sequence?
Answer: The value was 0.499 ± 0.17 kcal/mol.

Question: What about the “folding stability dG unfold” value [3] of the same sequence?
Answer: Its value is 0.459 ± 0.16 kcal/mol.

Question: Which results are given for “SAGGSAGGSAEIVPVDGKLYVRIEVDGKTYVFEFDSVEELKNATFTLPNGKKVKVEIVPKEDLSAGGSAGGS [r12_730_TrROS_Hall]”?
Answer: folding stability dG unfold [1]: 2.26 ± 0.067 kcal/mol; folding stability dG unfold [2]: 3.433 ± 0.029 kcal/mol; folding stability dG unfold [3]: 3.12 ± 0.059 kcal/mol

Reference: the supplement of paper PMC12764529
